This note sets out measurements from publication doi:10.1101/2021.09.20.461157 (bioRxiv, 2021).

This series deals with the molecule itself. The series can be described thus: cryo-EM structure.

B1: Mouse EHD4 (residues 22-541, EHD4^ΔN) (domain or fragment, UniProt Q9EQP2 22-541, looked up)
chain: QTVTGGLRSLYQRKVLPLEEAYRFHEFHSPALEDADFENKPMILLVGQYSTGKTTFIRYLLEQDFPGMRIGPEPTTDSFIAVMYGETEGSTPGNALVVDPKKPFRKLSRFGNAFLNRFMCSQLPNQVLKSISIIDSPGILSGEKQRISRGYDFCQVLQWFAERVDRIILLFDAHKLDISDEFSEAIKAFRGQDDKIRVVLNKADQVDTQQLMRVYGALMWSLGKVINTPEVLRVYIGSFWAQPLQNTDNRRLFEAEAQDLFRDIQSLPQKAAVRKLNDLIKRARLAKVHAYIISYLKKEMPNMFGKENKKRELIYRLPEIYVQLQREYQISAGDFPEVKAMQEQLENYDFTKFHSLKPKLIEAVDNMLTNKISSLMGLISQEEMNMPTQMVQGGAFDGTTEGPFNQGYGEGAKEGADEEEWVVAKDKPVYDELFYTLSPINGKISGVNAKKEMVTSKLPNSVLGKIWKLADCDCDGMLDEEEFALAKHLIKIKLDGYELPNSLPPHLVPPSHRKSLPKAD
Take B1: the binding result is listed as “binds”.
